Changes are numbered by the printed parent chain.
B1: 13F04 (antibody, V domains shown)
VH: QVQLQQPGAELVKPGASVKLSCKASGYIFISYWMHWVKQRPGQGLEWIGEINPRNGRTNYNEKFKSKATLTVDKSSSTAYMQLTSLTSEDSAVYYCARGGDYGGSFDYWGQGTTLTVSS
VL: DIVLTQSPASLAVSLGQRATISCRASESVDSYGNSFMHWYQQKPGQPPKLLIYRASNLESGIPARFSGSGSRTDFTLTVNPVEADDVATYYCQQSNEDPWTFGGGTKLEIK
B2: 143G03 (antibody, V domains shown)
VH: QVQLRQSGAELVRPGTSVKMSCKASGYTFTNYYIHWVKQRPGQGLEWIGKIGPGSGSPYYNGMFKDKATLTVDTSSSTAYMQLSSLTSEDSAVYFCARWLLPFDYWGQGTTLTVSS
VL: QIVLSQSPGILSASPGEKVTMTCRASSSVNYMHWYQQKSGSSPKPWIFATSILASGVPPRFSGSGSGTSYSLTISSVEAEDTATYYCQQFSSDPLTFGAGTKLELK
B3: 14A10 (antibody, V domains shown)
VH: EVQMVESGGGLVQPGGSLRLSCAAPGFIFSSYNMNWVRQAPGKGLEWVSYISSSSSTTYYADSVKGRFTISRDNAKNSLYLQMNSLRDEDTAVYYCASLYSGYDYYYYYGMDVWGQGTTVTVSS
VL: DIVMTQTPLSSPVSLGQPASISCRSSQSLVHSDGNTYLSWLQQRPGQPPRVLIYKISKRFSGVPDRFSGSGAGTDFTLKISRVEAEDVGVYYCMQATQFPFTFGPGTKVDIK
B4: 13G04 (antibody, V domains shown)
VH: QVQLVQSGAEVKKPGASVKVSCKASGYTFIGYYLHWVRQAPGQGLEWMGWINPNSGGTNSAQKFQGRVTMTRDTSISTTYMDLSRLRSDDTAVYYCARGGLERRDAFDIWGQGTLVTVSS
VL: DIQMTQSPSTLSASVGDRVTITCRASQSISNWLAWYQQKPGKAPNLLIYKASSLESGVPSRFSGSGSGTEFTLTISSLQPDDFATYYCQQYDTYRTFGQGTKVEIK
B5: Fab Construct 1 (chimeric 76H12 Fab, parental mouse 76H12 V-regions) (Fab, V domains shown)
VH: QVQLQQPGSDLVRPGTSVKLSCKASGYTFTSYWMHWVKQRPGQGLEWIGNVYPGSGSTKYDEKFKTKATLTVDTSSNTAYMELSSLTSEDSAVYYCTRPGNYEGFAYWGQGTLVTVSA
VL: B1 VL with D1N, N34S, R54L, I62V, V79I, N80D, V87A, S95N
notes: domain: CH1; also called Fab 1; chimeric Fab; not shown: constant region of human kappa light chain
B6: Fab Construct 2 (humanized 76H12 Fab) (Fab, V domains shown)
VH: QVQLVQSGAEVKKPGASVKVSCKASGYTFTSYWMHWVRQAPGQGLEWMGNVYPGSGSTKYAQKFQGRVTMTRDTSTSTVYMELSSLRSEDTAVYYCARPGNYEGFAYWGQGTLVTVSS
VL: NIQLTQSPSSLSASVGDRVTITCRASESVDSYGSSFMHWYQQKPGKPPKLLIYLASNLESGVPSRFSGSGSGTDFTLTISSLQPEDFATYYCQQNNEDPWTFGQGTKLEIK
notes: domain: CH1; also called Fab 2; h76H12_Hv0/h76H12_Lv3; not shown: constant region of human kappa light chain

molecular target: L1CAM endogenously expressed on MCF-7 and MDA-MB-231 cells (UniProt P32004); test: flow cytometry, MDA-MB-231 cells

Going from B1 to B2, the EC50 falls from 1.7 nM to 0.9 nM (1.9-fold). The second is the more potent here.

B3 and B4 are within 1.5-fold of each other in EC50: 8.9 nM for the first, 6.7 nM for the second.

molecular target: human L1CAM overexpressed on HEK293T cells (human, UniProt P32004 20-1257); test: flow cytometry on HEK293T cells overexpressing L1CAM (panel HEK293T-L1CAM), GMFI ratio to 2nd only against log[Fab], nM
Sequence (P32004 20-1257): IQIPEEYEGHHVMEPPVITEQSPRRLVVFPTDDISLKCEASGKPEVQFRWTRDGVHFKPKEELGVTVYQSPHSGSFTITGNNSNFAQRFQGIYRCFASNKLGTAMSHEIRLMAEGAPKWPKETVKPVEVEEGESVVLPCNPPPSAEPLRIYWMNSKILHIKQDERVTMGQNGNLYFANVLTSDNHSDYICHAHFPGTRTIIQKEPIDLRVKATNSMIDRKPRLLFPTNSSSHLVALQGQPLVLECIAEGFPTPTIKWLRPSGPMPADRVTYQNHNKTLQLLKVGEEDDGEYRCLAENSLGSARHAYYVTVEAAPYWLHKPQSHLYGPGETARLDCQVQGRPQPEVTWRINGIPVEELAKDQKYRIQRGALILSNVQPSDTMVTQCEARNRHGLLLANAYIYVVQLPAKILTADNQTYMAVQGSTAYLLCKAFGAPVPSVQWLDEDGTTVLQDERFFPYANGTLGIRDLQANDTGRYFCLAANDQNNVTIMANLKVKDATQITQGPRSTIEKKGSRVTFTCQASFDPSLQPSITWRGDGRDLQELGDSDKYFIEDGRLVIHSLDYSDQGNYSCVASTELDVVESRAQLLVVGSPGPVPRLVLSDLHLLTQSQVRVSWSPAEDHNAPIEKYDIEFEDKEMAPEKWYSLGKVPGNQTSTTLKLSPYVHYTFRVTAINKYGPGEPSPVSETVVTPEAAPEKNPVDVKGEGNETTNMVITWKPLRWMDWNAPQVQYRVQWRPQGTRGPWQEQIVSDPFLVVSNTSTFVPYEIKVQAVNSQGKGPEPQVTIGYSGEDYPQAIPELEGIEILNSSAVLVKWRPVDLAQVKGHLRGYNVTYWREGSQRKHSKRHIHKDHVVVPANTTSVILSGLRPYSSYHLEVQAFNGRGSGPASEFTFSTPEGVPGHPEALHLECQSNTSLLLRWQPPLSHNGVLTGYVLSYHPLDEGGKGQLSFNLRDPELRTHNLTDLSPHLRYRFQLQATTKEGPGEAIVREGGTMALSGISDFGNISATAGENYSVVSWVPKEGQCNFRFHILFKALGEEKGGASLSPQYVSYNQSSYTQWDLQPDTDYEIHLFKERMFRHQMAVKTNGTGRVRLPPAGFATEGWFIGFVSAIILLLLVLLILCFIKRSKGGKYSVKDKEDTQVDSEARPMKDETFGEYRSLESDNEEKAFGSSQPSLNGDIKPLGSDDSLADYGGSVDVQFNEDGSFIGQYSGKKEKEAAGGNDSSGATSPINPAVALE
From the text: A total of 11 humanized 76H12 Fab variants (Fabs 2-12) were generated in addition to a chimeric 76H12 Fab (Fab 1) containing the parental murine VH and VL sequences. The chimeric Fab served as the benchmark for comparative assessment of humanized Fab variants. […] All humanized variants bound to the L1CAM overexpressing cells, with most binding comparably to the chimeric 76H12 Fab. […] Here, recombinant L1CAM-Fc fusion protein was immobilized onto anti-Human IgG Fc Capture (AHC) biosensors and binding of Fabs was measured kinetically over a 3-200 nM concentration range. Kinetic data were fitted to a 1:1 binding model to compute association (kₒₙ) and dissociation (koff) rate constants, in addition to equilibrium dissociation constants (KD) as shown in Table 59. […] From these, Fab 3 represents the preferred humanized variant given higher identity to human germline IGHV1-46 and IGKV1-39 sequences resulting from fewer human-to-murine framework back mutations.

Going from B5 to B6, the “EC50 (read off the curve)” value rises from about 70 nM to about 200 nM (2.9-fold).

molecular target: L1CAM endogenously expressed on MCF-7 and MDA-MB-231 cells (UniProt P32004); test: flow cytometry, MCF-7 cells

Compared with B1, B2 is 3.4-fold lower in EC50: 1.2 nM for the first, 0.35 nM for the second.

B3 and B4 are within 1.5-fold of each other in EC50: 5.3 nM for the first, 4.8 nM for the second.

— US20260131000A1 (Memorial Sloan Kettering, published 2026)
